Biological target: Recombinant human Fc-tagged MCAM IgG1-2A (human) (UniProt P43121)
Test: SPR (Biacore T200), steady state, MCAM IgG1-2A captured by anti-Fc IgG, laminin in solution

Sequence of Recombinant human Fc-tagged MCAM IgG1-2A (human) (P43121 19-242): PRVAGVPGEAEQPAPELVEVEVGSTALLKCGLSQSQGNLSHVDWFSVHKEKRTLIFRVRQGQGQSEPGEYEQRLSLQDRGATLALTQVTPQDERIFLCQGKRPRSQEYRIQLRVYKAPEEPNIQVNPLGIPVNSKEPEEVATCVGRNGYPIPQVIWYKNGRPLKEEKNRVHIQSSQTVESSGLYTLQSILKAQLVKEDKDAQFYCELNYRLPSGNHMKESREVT

Kd: 0.066 µM
Substance: Recombinant human laminin 411 (Biolamina) (from UniProt Q16363 25-1823; P07942 22-1786; P11047 34-1609) (ligand)
